According to patent US20150203577A1 (Chugai, published 2015):
Numbering of substitutions follows the chain as printed. Numbers in names are those of the source. Where two headings read alike, the source gives them in different places.

Key:
mouse FcγRIII [1] = target: T1, mouse FcγRIII (mouse, UniProt P08508 31-215); assay: SPR Biacore T200
T1 construct: also called mFcγRIII; mFcgRIII
T1 chain: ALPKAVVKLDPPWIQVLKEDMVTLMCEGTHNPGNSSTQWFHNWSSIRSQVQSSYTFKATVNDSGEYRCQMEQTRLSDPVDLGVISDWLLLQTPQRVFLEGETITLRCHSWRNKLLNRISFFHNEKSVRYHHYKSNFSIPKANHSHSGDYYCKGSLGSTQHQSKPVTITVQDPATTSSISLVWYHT
Description: (§1) The antibody H chain variable region used was the variable region H237 (SEQ ID NO: 1) of the H chain VH3-IgG1 of the anti-IL-6 receptor antibody Fv4-IgG1 described in WO2009/125825. The antibody L chain commonly used was the L chain MRAL-k0 (SEQ ID NO: 2) of the anti-IL-6 receptor antibody tocilizumab. The aforementioned 11 variants were used as templates to introduce the alteration. These variants were expressed and purified by the method of Reference Example 1 and evaluated for their binding to mFcγRII and mFcγRIII by the method of Reference Example 2 using Biacore T200.
Each altered antibody was analyzed for its interaction with each Fcγ receptor prepared above using Biacore T100 (GE Healthcare Japan Corp.), Biacore T200 (GE Healthcare Japan Corp.), Biacore A100, or Biacore 4000. The running buffer used was HBS-EP+ (GE Healthcare Japan Corp.). The assay temperature was set to 25° C. […]
In order to calculate the KD value of each altered antibody for FcγR, kinetic analysis was conducted according to the following method: first, the antibody of interest was captured onto any of these chips and allowed to interact with mFcγR diluted with a running buffer. […] From these values, the dissociation constant KD (mol/L) was calculated.

mouse FcγRII [2] = target: T2, mouse FcγRII (mouse, UniProt P08101 30-210); assay: told of the L104-mk1 form; SPR was run on the MRAL-k0 form
T2 construct: also called mFcγRII; mFcgRII
T2 sequence: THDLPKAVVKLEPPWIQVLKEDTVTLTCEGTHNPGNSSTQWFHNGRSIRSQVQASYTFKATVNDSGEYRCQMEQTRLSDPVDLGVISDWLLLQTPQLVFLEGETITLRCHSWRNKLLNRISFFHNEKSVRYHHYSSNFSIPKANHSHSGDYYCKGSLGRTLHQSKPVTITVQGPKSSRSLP

[3] = target: T3, mouse FcγRIII extracellular domain, C-terminal His tag (mouse, UniProt P08508 31-215); assay: SPR (Biacore T200)
T3 construct: Whole entry named; also called mFcγRIII; mFcgRIII
T3 chain: T1 chain
Description: as §1, with “The aforementioned 11 variants were used as templates to introduce the alteration.” left out
(§2) Each altered antibody was analyzed for its interaction with each Fcγ receptor prepared above using Biacore T100 (GE Healthcare Japan Corp.), Biacore T200 (GE Healthcare Japan Corp.), Biacore A100, or Biacore 4000. The running buffer used was HBS-EP+ (GE Healthcare Japan Corp.). The assay temperature was set to 25° C. The sensor chips used were chips prepared by immobilizing Protein L (ACTIGEN or BioVision) onto Series S Sensor Chip CM5 (GE Healthcare Japan Corp.) or Series S Sensor Chip CM4 (GE Healthcare Japan Corp.) by the amine coupling method.

[4] = target: T4, mouse FcγRII extracellular domain, C-terminal His tag (mouse, UniProt P08101 30-210); assay: SPR (Biacore T200); KD of H237-mIgG1/MRAL-k0 / KD of variant
T4 construct: Whole entry named; also called mFcγRII; mFcgRII
T4 sequence: T2 sequence

[5] = target: T5, mouse FcγRII extracellular domain, C-terminally His-tagged (mouse, UniProt P08101 30-210); assay: SPR Biacore T200, KD ratio
T5 construct: the whole entry is named; also called mFcγRII; mFcgRII
T5 sequence: T2 sequence
Method: (§3) As for alterations, “X000Z” represents the substitution of amino acid X at EU numbering position 000 by amino acid Z. In this context, X and Z represent the one-letter codes of the amino acid residues.
as §2
(§4) In order to calculate the KD value of each altered antibody for FcγR, kinetic analysis was conducted according to the following method: first, the antibody of interest was captured onto any of these chips and allowed to interact with mFcγR diluted with a running buffer. For the obtained sensorgram, the assay results were globally fit into the 1:1 Langmuir binding model using Biacore Evaluation Software to calculate an association rate constant ka (L/mol/s) and a dissociation rate constant kd (1/s). From these values, the dissociation constant KD (mol/L) was calculated.

[6] = target: T6, mouse FcγRIII extracellular domain, C-terminally His-tagged (mouse, UniProt P08508 31-215); assay: SPR Biacore T200, KD ratio
T6 construct: the whole entry is named; also called mFcγRIII; mFcgRIII
T6 chain: T1 chain
Method: as §3, §2, §4

[7] = target: T5, mouse FcγRII extracellular domain, …; assay: SPR Biacore T200, antibody captured on Protein L
Method: as §3, §2, §4

[8] = target: T6, mouse FcγRIII extracellular domain, …; assay: SPR Biacore T200, antibody captured on Protein L
Method: as §3, §2, §4

[9] = target: T3, mouse FcγRIII extracellular domain, …; assay: SPR (Biacore T200)
[10] = target: T4, mouse FcγRII extracellular domain, …; assay: SPR (Biacore T200); KD of H237-mIgG1/MRAL-k0 / KD of variant; remark: listed apart in the source
Method: as §2, §4

[11] = target: T4, mouse FcγRII extracellular domain, …; assay: SPR (Biacore T200)
Description: as §1, with “The aforementioned 11 variants were used as templates to introduce the alteration.” left out
as §2

[12] = target: T3, mouse FcγRIII extracellular domain, …; assay: SPR (Biacore T200); KD of H237-mIgG1/MRAL-k0 / KD of variant
mouse FcγRIII [13] = target: T1, mouse FcγRIII; assay: told of the L104-mk1 form; SPR was run on the MRAL-k0 form
mouse FcγRII [14] = target: T2, mouse FcγRII; assay: told of the L104-mk1 form; SPR (Table 28) was run on the MRAL-k0 form
[15] = target: T3, mouse FcγRIII extracellular domain, …; assay: SPR (Biacore T200)
Description: as §1, with “7” for “11”, “substitute the amino acids at the alteration sites by the amino acids before” for “introduce”
as §2

[16] = target: T4, mouse FcγRII extracellular domain, …; assay: SPR (Biacore T200); KD of H237-mIgG1/MRAL-k0 / KD of variant; remark: listed apart in the source
Description: as §1, with “7” for “11”, “substitute the amino acids at the alteration sites by the amino acids before” for “introduce”
as §2

B1: H237-MB697/MRAL-k0 (antibody, mouse IgG1, kappa)
heavy: QVQLQESGPGLVKPSETLSLTCAVSGHSISHDHAWSWVRQPPGEGLEWIGFISYSGITNYNPSLQGRVTISRDNSKNTLYLQMNSLRAEDTAVYYCARSLARTTAMDYWGEGTLVTVSSAKTTPPSVYPLAPGSAAQTNSMVTLGCLVKGYFPEPVTVTWNSGSLSSGVHTFPAVLQSDLYTLSSSVTVPSSTWPSETVTCNVAHPASSTKVDKKIVPRDCGCKPCICEPPEVEFVFIFPPKPKDVLTITLTPKVTCVVVDISKDDPEVQFSWFVDDVEVHTAQTQPREEQFNSTFRSVSELPIMHQDWLNGKEFKCRVNSAAFPAPIEKTISKTKGRPKAPQVYTIPPPKEQMAKDKVSLTCMITDFFPEDITVEWQWNGQPAENYKNTQPIMDTDGSYFVYSKLNVQKSNWEAGNTFTCSVLHEGLHNHHTEKSLSHSPGK
light: not shown
notes: copies: 2 + 2
binding result (mouse FcγRIII [1]): no binding

B2: H237-MB367/L104-mk1 (antibody, mouse IgG1, kappa)
heavy: B1 heavy with P230A, P231N, F235D
light: DIQMTQSPSSLSASVGDSVTITCQASTDISSHLNWYQQKPGKAPELLIYYGSHLLSGVPSRFSGSGSGTDFTFTISSLEAEDAATYYCGQGNRLPYTFGQGTKVEIERADAAPTVSIFPPSSEQLTSGGASVVCFLNNFYPKDINVKWKIDGSERQNGVLNSWTDQDSKDSTYSMSSTLTLTKDEYERHNSYTCEATHKTSTSPIVKSFNRNEC
notes: the text speaks of it for this form; copies: 2 + 2
binding result (mouse FcγRII [2]): binds

B3: H237-MB610/MRAL-k0 (antibody, mouse IgG1, kappa)
heavy: B1 heavy with E229T, P230V, V233E, E234S, F235E, F237D
light: not shown
notes: copies: 2 + 2
binding result [3]: no binding | relative mFcγRII-binding activity (mIgG1 = 1) [4]: 0.23 fold

B4: H237-mF46/MRAL-k0 (antibody, mouse IgG1, kappa)
heavy: B1 heavy with E229T, P230V, E234S, F235D, A323D
light: not shown
notes: S239D/A327D (EU) against H237-mIgG1; copies: 2 + 2
relative mFcγRII-binding activity (mIgG1 = 1) [5]: 158 fold | relative mFcγRIII-binding activity (mIgG1 = 1) [6]: 44 fold | Kd [7]: 1.33 nM | Kd [8]: 6.4 nM

B5: H237-MB881/MRAL-k0 (antibody, mouse IgG1, kappa)
heavy: B1 heavy with P230V, P231N, V233E, F235L
light: not shown
notes: copies: 2 + 2
binding result [9]: no binding | relative mFcγRII-binding activity (mIgG1 = 1) [10]: 0.23 fold

B6: H237-MB590/MRAL-k0 (antibody, mouse IgG1, kappa)
heavy: B1 heavy with E229T, P230V, E234D, F235S, S263M
light: not shown
notes: copies: 2 + 2
binding result [11]: no binding | binding result [3]: no binding

B7: H237-MB675/MRAL-k0 (antibody)
heavy: B1 heavy with E229I, P231A, F235K
light: not shown
notes: copies: 2 + 2
binding result [11]: no binding | relative mFcγRIII-binding activity (mIgG1 = 1) [12]: 0.01 fold

B8: H237-mF46/L104-mk1 (antibody, mouse IgG1, kappa)
heavy: B1 heavy with E229T, P230V, E234S, F235D, A323D
light: B2 light
notes: as for B2
binding result (mouse FcγRII [2]): binds | binding result (mouse FcγRIII [13]): binds

B9: H237-MB880/MRAL-k0 (antibody, mouse IgG1, kappa)
heavy: B1 heavy with P230V, P231A, V233E, F235L
light: not shown
notes: copies: 2 + 2
binding result [9]: no binding | relative mFcγRII-binding activity (mIgG1 = 1) [10]: 0.34 fold

B10: H237-MB492/L104-mk1 (antibody, mouse IgG1, kappa)
heavy: B1 heavy with P231N, F235D, N320D
light: B2 light
notes: the text gives the rounded value for this form; copies: 2 + 2
relative mFcγRII-binding activity (H237-mIgG1/L104-mk1 = 1) (mouse FcγRII [14]): ~620 fold

B11: H237-MB367/MRAL-k0 (antibody, mouse IgG1, kappa)
heavy: B1 heavy with P230A, P231N, F235D
light: not shown
notes: T230E/V231A/P232N/S238E/S239D (EU) against H237-mIgG1; copies: 2 + 2
relative mFcγRII-binding activity (mIgG1 = 1) [5]: 159 fold | relative mFcγRIII-binding activity (mIgG1 = 1) [6]: 6.2 fold | Kd [7]: 1.32 nM | Kd [8]: 45.4 nM

B12: H237-MB701/MRAL-k0 (antibody, mouse IgG1, kappa)
heavy: B1 heavy with P230V, V233E
light: not shown
notes: copies: 2 + 2
binding result (mouse FcγRIII [1]): no binding

B13: H237-MB879/MRAL-k0 (antibody, mouse IgG1, kappa)
heavy: B1 heavy with E229T, P231N, V233E, F235L
light: not shown
notes: copies: 2 + 2
binding result [9]: no binding | relative mFcγRII-binding activity (mIgG1 = 1) [10]: 0.3 fold

B14: H237-MB701/MRAL-k0 (antibody, mouse IgG1, kappa)
heavy: B1 heavy with P230V, V233E
light: not shown
notes: copies: 2 + 2
binding result [15]: no binding | relative mFcγRII-binding activity (mIgG1 = 1) [16]: 0.187 fold

B15: H237-MB477/L104-mk1 (antibody, mouse IgG1, kappa)
heavy: B1 heavy with P231N, F235D, S263A
light: B2 light
notes: as for B10
relative mFcγRII-binding activity (H237-mIgG1/L104-mk1 = 1) (mouse FcγRII [14]): ~200 fold

B16: H237-MB697/MRAL-k0 (antibody, mouse IgG1, kappa)
heavy: B1 heavy
light: not shown
notes: copies: 2 + 2
binding result [15]: no binding | relative mFcγRII-binding activity (mIgG1 = 1) [16]: 0.217 fold

B17: H237-MB606/MRAL-k0 (antibody, mouse IgG1, kappa)
heavy: B1 heavy with P230V, E234D, F235S, S263M
light: not shown
notes: copies: 2 + 2
binding result [3]: no binding | relative mFcγRII-binding activity (mIgG1 = 1) [4]: 0.05 fold

B18: H237-MB677/MRAL-k0 (antibody)
heavy: B1 heavy with E229Q, P231N, F235K
light: not shown
notes: copies: 2 + 2
binding result [11]: no binding | relative mFcγRIII-binding activity (mIgG1 = 1) [12]: 0.03 fold
